The target in assay [1] is activated blood coagulation factor X (FXa) (Homo sapiens, UniProt P00742). As to conditions: background statement; cited from earlier work.
For assay [2], the target named is human FXa (American Diagnostica Inc.) (human) (UniProt P00742).
Assay [3] shares this target. This is another data set of the same source.
Assay [4] has the same target. This is another data set of the same source.
Assay [5] shares this target. The source holds these as a separate data set.
The target is the same in assay [6]. This is another data set of the same source.

Where two headings read alike, the source gives them in different places.

Chain of human FXa (American Diagnostica Inc.) (human) (P00742 41-488 limits assumed): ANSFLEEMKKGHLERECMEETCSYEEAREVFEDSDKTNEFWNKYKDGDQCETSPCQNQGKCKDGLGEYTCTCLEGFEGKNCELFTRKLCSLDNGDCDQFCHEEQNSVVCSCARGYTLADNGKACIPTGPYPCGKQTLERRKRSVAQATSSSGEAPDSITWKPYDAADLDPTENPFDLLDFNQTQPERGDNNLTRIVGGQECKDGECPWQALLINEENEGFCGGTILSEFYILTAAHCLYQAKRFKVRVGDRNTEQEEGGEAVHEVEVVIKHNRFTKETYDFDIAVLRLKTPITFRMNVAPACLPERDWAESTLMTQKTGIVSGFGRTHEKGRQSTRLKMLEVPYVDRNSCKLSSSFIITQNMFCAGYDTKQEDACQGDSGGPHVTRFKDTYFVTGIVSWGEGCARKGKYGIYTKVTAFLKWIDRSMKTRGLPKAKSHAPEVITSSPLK
Chain of activated blood coagulation factor X (FXa) (P00742 235-488 limits assumed): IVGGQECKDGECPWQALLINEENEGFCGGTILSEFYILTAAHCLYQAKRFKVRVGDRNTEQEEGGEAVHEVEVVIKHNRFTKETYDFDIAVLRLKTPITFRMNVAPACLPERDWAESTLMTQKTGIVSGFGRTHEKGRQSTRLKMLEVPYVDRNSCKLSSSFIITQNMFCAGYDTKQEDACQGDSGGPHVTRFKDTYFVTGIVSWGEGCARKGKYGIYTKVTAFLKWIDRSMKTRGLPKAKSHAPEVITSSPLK
Chain of activated blood coagulation factor X (FXa) (P00742 41-179 partner limits assumed): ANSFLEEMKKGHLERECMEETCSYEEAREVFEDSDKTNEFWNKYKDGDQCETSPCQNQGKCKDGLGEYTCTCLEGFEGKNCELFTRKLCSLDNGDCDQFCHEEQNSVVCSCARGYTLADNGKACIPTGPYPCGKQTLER

In the case of “polypeptide of formula 1: unsubstituted parent polypeptide whose sequence coincides with a part of UTI or Bikunins (HI-30) (CNLPIVRGPCRAFIQLWAFDAVKGKCVLFPYGGCQGNGNKFYSEKECREYC) [reference compound]”, the FXa-inhibiting activity result in assay [1] is given as “high FXa-inhibiting activity”.

As for AACNLPIVRGPCRAFIRLWAFDAVKGKCVLFPYGGCQGNGNKFYSEK [polypeptide Q19R], the human FXa-inhibiting activity (substrate S-2222, residual FXa activity) (times higher than polypeptide AN68) in assay [2] is 6.

Consider AACNLPIVRGPCRAFIRLWAFDAVKGKCVLFPYGGCQGNGNKFESEK [polypeptide Q19R/Y46E], for which the human FXa-inhibiting activity (substrate S-2222, residual FXa activity) (times higher than polypeptide AN68) in assay [3] came out at 10.

In assay [4], AACNLPIVRGPCRAFIKLWAFDAVKGKCVLFPYGGCQGNGNKFESEK [polypeptide Q19K/Y46E] registered a human FXa-inhibiting activity (substrate S-2222, residual FXa activity) (times higher than polypeptide AN68) of 10.

AACNLPIVEGPCRAFIQLWAFDAVKGKCVLFPYGGCQGNGNKFESEK [polypeptide R11E/Y46E] yielded a human FXa-inhibiting activity (substrate S-2222, residual FXa activity) (times higher than polypeptide AN68) in assay [5] of 3.

In turn, DDAACNLPIVRGPCRAFIKLWAFDAVKGKCVLFPYGGCQGNGNKFYSEK [polypeptide Q19K] gave a human FXa-inhibiting activity (substrate S-2222, residual FXa activity) (times higher than polypeptide TN70) in assay [6] of 5.

B1: urinary trypsin inhibitor (protein, UniProt P02760 206-352, looked up)
Inter-alpha-trypsin inhibitor …: AVLPQEEEGSGGGQLVTEVTKKEDSCQLGYSAGPCMGMTSRYFYNGTSMACETFQYGGCMGNGNNFVTEKECLQTCRTVAACNLPIVRGPCRAFIQLWAFDAVKGKCVLFPYGGCQGNGNKFYSEKECREYCGVPGDGDEELLRFSN
modifications: Inter-alpha-trypsin inhibitor light chain
B1: the FXa-inhibiting activity result in assay [1] was “hardly show such an activity”.

B2: HI-30: Bikunins (HI-30), natural protease inhibitor (protein, UniProt P02760 206-352, looked up)
Inter-alpha-trypsin inhibitor …: AVLPQEEEGSGGGQLVTEVTKKEDSCQLGYSAGPCMGMTSRYFYNGTSMACETFQYGGCMGNGNNFVTEKECLQTCRTVAACNLPIVRGPCRAFIQLWAFDAVKGKCVLFPYGGCQGNGNKFYSEKECREYCGVPGDGDEELLRFSN
modifications: Inter-alpha-trypsin inhibitor light chain
B2: the FXa-inhibiting activity result in assay [1] is given as “hardly show such an activity”.

Values taken from patent publication US5679770A, “Polypeptide, DNA fragment encoding the same, drug composition containing the same and process for producing the same” (Mochida Pharmaceutical Co., Ltd., priority 1991, dated 1997).
